Paper PMC314469, “Protein Interaction Networks by Proteome Peptide Scanning” (PLoS Biology, 2004)

T1: amphyphisin SH3 (AMPH_HUMAN), P49418
T1 chain: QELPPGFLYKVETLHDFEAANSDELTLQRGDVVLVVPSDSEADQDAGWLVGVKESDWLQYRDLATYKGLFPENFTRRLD


Tests used:
[1] = molecular target: T1, amphyphisin SH3 (AMPH_HUMAN), P49418; experiment: SPOT array
[2] = molecular target: endophilin SH3 (SH3G2_HUMAN), Q99962; experiment: SPOT array

Row | normalised SPOT signal, Boehringer light units (BLU); mean over the file's lines of this peptide [1] | normalised SPOT signal, Boehringer light units (BLU); mean over the file's lines of this peptide [2] | Binder
1 | 40 | 118 | YGLSPLRPPSVLPP [O14686 2329-2343]
2 | 154 | 95.9 | YPQDLPRPLRSREF [O43734 232-245]
3 | 3280 | 131 | YEEPPQKPPRFSQL [Q92625 879-893]
4 | 47.4 | 28.6 | YKVNLKRPSPFWND [Q96HE7 77-90]
5 | 51.5 | 208 | YENKPRRPYILKRD [P30990 153-166]
6 | 48.6 | 553 | YKVSPGRPPGSIKA [BAC04448 133-147]
7 | 35.9 | 110 | YGHIFRRPKGLFIS [P23368 123-136]
8 | 37 | 297 | YERTLRRPVPLPHS [O94824 705-718]
9 | 4890 | 1730 | SPSAPRRPRRPRRP [Q96QG0 338-351]
10 | 23.2 | 347 | YGLTFRRPRGLFIT [Q16798 148-161]
11 | 135 | 1270 | YHLPLRRPSPGFSW [O95428 295-308]
12 | 3180 | 508 | WTDRPERPSKPLLT [O15250 155-168]
13 | 24.9 | 94.9 | YPNKIKRPSLEDVT [Q13495 6-19]
14 | 150 | 1510 | YRLPPTRPPASVSP [Q96LR7 16-30]
15 | 386 | 127 | YLTVLGRPDRPRDL [O94856 414-427]
16 | 317 | 364 | YSTGPPRPGRLFGS [Q13006 89-102]
17 | 38.4 | 110 | WTEDPRRPLPWALS [P42898 339-352]
18 | 2220 | 1780 | YIFSLVRPARYQRV [P41440 139-152]
19 | 87.9 | 614 | YQGGPPRPPMGMRP [O43670 455-469]
20 | 469 | 85.1 | YRRRFSRPSRARDI [Q03188 13-26]
21 | 43.2 | 55.9 | SNKGFRRPSEKNQH [Q9Y4J6 675-688]

The remaining lines, values behind:

Row | Binder | normalised SPOT signal, Boehringer light units (BLU); mean over the file's lines of this peptide [1] | normalised SPOT signal, Boehringer light units (BLU); mean over the file's lines of this peptide [2]
22 | YDTFPEKPPPSPGD [Q9UGQ3 12-26] | 33 | 97.2
23 | YLGKPSRPPHLLLE [Q9H5Q4 87-101] | 44.1 | 1770
24 | YHPNPKRPGLDREQ [Q8WXI7 2968-2981] | 43.3 | 34.1
25 | YKVNLKRPSPFWAE [Q9NR62 73-86] | 30.9 | 42.2
26 | YQHHPKRPSRQIHK [Q9HCL0 744-757] | 3940 | 432
27 | YPARPRRPASTAGS [Q9BTV6 12-25] | 4030 | 2010
28 | SQPGPAKPPAHRPS [Q9NPM2 248-262] | 39.8 | 176
29 | YSLLFRRPPPSPSP [Q9NZY4 11-24] | 204 | 175
30 | YLQLPPRPPGTRAS [Q9H4M7 331-345] | 235 | 1230
31 | WVTMPRRPPPSGGL [Q9P2P9 924-937] | 31 | 2400
32 | SQKAFKRPSDLRQH [Q9P2F9 337-350] | 61.1 | 19
33 | YHPPIFRPMKRINL [Q9HC18 65-78] | 164 | 250
34 | YRHGISRPLRPLSS [Q9UBX1 412-425] | 1500 | 867
35 | YHPPIFRPMKRITW [Q9GZT8 65-78] | 145 | 293
36 | YAMGFNRPSKIQEN [Q9UMR2 108-121] | 237 | 244
37 | SPPIPRRPAEPPWP [Q9HBU2 317-330] | 33 | 1380
38 | YRQQPKRPQKHIQK [Q9NPG4 759-772] | 103 | 183
39 | YQRLPRRPGEPREV [Q9UHC9 721-734] | 116 | 143
40 | YGPNIGRPRKNVIA [Q9HB39 190-203] | 134 | 166
41 | YKPPLSRPLRPGPW [Q9H1B5 714-727] | 1210 | 263
42 | YQEYLKRPPESPPI [Q9BTL3 26-39] | 34.1 | 42.7
